Source: article PMC3384314

What was measured:
[1] = molecular target: T1, dHEXIM ILAA (Drosophila, UniProt Q7K4N7 1-349, K42I;H43L;R44A;R45A); assay: EMSA
T1 sequence: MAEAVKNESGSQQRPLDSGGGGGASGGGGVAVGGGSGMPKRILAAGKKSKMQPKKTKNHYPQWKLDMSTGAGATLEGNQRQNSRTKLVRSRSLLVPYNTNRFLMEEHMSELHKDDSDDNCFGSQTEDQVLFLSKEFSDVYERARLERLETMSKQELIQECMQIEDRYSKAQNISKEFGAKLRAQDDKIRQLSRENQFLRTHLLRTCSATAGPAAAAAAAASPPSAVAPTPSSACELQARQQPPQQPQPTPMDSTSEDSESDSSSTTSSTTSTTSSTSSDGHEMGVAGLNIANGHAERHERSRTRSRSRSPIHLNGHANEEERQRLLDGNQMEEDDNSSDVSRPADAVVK

[2] = molecular target: T2, dHEXIM WT (Drosophila, UniProt Q7K4N7 1-349); assay: EMSA
T2 sequence: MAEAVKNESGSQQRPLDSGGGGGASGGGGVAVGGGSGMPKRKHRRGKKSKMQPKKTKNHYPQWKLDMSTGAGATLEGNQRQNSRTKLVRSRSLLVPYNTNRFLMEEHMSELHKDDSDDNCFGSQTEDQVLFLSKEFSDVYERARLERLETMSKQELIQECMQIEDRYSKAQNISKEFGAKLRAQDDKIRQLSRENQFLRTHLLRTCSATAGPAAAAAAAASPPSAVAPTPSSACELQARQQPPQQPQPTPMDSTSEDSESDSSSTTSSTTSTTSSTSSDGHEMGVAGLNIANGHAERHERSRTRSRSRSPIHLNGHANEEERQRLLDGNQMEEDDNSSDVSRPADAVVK

B1: dsRNA oligo (TTF2 25-mer) (dsRNA)
RNA 1: CAAGCAAGAGGCAGAGAUCCCAGGU
RNA 2: ACCUGGGAUCUCUGCCUCUUGCUUG
B1: no binding [1]; binds [2].
